The target of data set [1] is T1, annexin 2 (Homo sapiens, UniProt P07355 SEQ:2-339). In words: HEK-293 cells, Scatchard; Cmax 269 pM. The note with it: label: 32P, phycoerythrin, Alexa Fluor 546, biotin or Quantum Dot depending on assay; predicted secondary structure with potential pseudoknots.
Data set [2] addresses T1, annexin 2. In words: MDA-MB-231 cells, Scatchard; Cmax 167 pM. Particulars: label: 32P, phycoerythrin, Alexa Fluor 546, biotin or Quantum Dot depending on assay; predicted secondary structure with potential pseudoknots. The method, then: (§1) The binding curves were obtained for each cell type. On the basis of the specific binding, and using the Scatchard representation, the Kd and the number of targets per cell were determined for each of the cell types. The target of the ACE8 aptamer appears to be highly abundant at the surface of two human cancer lines (MCF-7 and A-431).

Data set [3] has as its target T1, annexin 2. Description: A-431 cells, Scatchard; Cmax 450 pM. Particulars: label: 32P, phycoerythrin, Alexa Fluor 546, biotin or Quantum Dot depending on assay; predicted secondary structure with potential pseudoknots. The method, then:
as §1

The target in data set [4] is T1, annexin 2. In words: U87-MG cells, Scatchard; Cmax 245 pM. Particulars: label: 32P, phycoerythrin, Alexa Fluor 546, biotin or Quantum Dot depending on assay; predicted secondary structure with potential pseudoknots.
Data set [5] deals with annexin 2/S100A10 heterotetrameric complex (Bos taurus, UniProt P04272;P60902 P04272:2-339,P60902:2-97). Description: filter; 0-12.5 nM protein, 1 pmol RNA in 200 ul RPMI 1640, 3 ug yeast tRNA, ambient temperature; very strong affinity compared with control. Particulars: tags: purified from bovine lung, Interchim A80109B; chain copies: 2 annexin 2 + 2 S100A10 (stated); label: 32P, phycoerythrin, Alexa Fluor 546, biotin or Quantum Dot depending on assay; predicted secondary structure with potential pseudoknots. As to the method: 1 pmol of ACE8 aptamer or of the control sequence was then preincubated with various concentrations of an annexin 2/S100A10 heterotetrameric complex. The fraction of ACE8 aptamer or of control sequence bound to the annexin 2/S100A10 heterotetramer was retained on a nitrocellulose filter and analyzed and quantified using a Storm Phosphorimager. […] FIG. 23 represents the quantification of the amount of oligonucleotides retained on the filter as a function of the concentration of annexin 2/S100A10 heterotetramer.
annexin 2/S100A10 heterotetrameric complex, sequence (P04272 2-339, chain 1 of 2): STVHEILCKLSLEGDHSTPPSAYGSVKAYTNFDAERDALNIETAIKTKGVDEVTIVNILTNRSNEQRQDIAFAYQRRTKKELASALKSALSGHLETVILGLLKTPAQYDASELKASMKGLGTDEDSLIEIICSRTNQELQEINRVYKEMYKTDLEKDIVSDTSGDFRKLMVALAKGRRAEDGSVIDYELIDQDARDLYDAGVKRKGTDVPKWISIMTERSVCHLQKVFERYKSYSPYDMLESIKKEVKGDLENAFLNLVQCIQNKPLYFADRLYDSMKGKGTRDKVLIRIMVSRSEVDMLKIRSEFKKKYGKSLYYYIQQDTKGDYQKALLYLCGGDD
annexin 2/S100A10 heterotetrameric complex, sequence (P60902 2-97, chain 2 of 2): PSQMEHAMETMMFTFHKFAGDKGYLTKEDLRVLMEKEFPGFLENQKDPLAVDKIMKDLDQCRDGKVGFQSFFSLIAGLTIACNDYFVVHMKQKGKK
For this, the oligonucleotides (ACE8 aptamer or control sequence (SEQ ID NO: 11)) were dephosphorylated at their 5′ end for 30 min at 37° C. with 2.5 U of Antarctic Phosphatase (New-England Biolabs) per nmol of 2′F-Py RNA. After inactivation of the enzyme at 88° C. for 15 min, the 2′F-Py RNA was precipitated with ethanol in the presence of 5 μl/ml of a neutral coprecipitant (Linear Polyacrylamide or LPA) (Ambion). The oligonucleotides were then labeled with ATP [gamma-³²P] using T4 kinase (invitrogen) according to the supplier's instructions. The 2′F-Py RNAs (2.3 MBq, i.e. 63nCi/pmol or 63nCi/pmol⁻¹) were subsequently purified by exclusion chromatography (Bio-Spin Sp30 Chromatography Columns (Biorad)). […]

T1 sequence (P07355 2-339): as the sequence (P04272 2-339, chain 1 of 2) above, with E65A, V159I, C222P, E229D, K244R, K308R counted along it

B1: ACE8 (ssRNA)
RNA: GGGAGAUGAUCCGUUGAUGCGAGGGAACGCAAGAACUGAGGCCAUGAGGCGCCUUCCCUUGCUCAGGACGCAAGUCGUCGUUCGUAGGCAGAAUC
modifications: 2'-F pyrimidines, 2'-OH purines
The term Kd denotes the constant that tells how readily two partners part at equilibrium. For B1, the Kd with annexin 2 [1] was 4.4 nM; in the data set with annexin 2 [2], 4.4 nM; with annexin 2 [3], 5.3 nM; in the data set with annexin 2 [4], 12.7 nM. Also, the binding result in data set [5] is recorded as “binds”.

Values taken from patent US20130266515, “Specific Ligand for Annexin 2” (Commissariat A L'Energie Atomique ET AUX Energies …, published 2013).
